Experimental data from patent US20220412989A1, “COMPOSITIONS AND METHODS FOR DETECTING CELLS UNDERGOING FERROPTOSIS USING AN ANTIBODY” (THE TRUSTEES OF COLUMBIA UNIVERSITY IN THE CITY OF NEW YORK, priority 2020, published 2022).

System: A-673, SK-BR-3, Huh-7 and SK-LMS-1 cells
Assay: Immunofluorescence staining in other cancer cell lines
Assay type: cell-based, human
Conditions: 1 μM RSL3, 4 h
Method: HT-1080 (ATCC Cat #CRL-7951, RRID:CVCL_0317), A-673, SK-BR-3, SK-LMS-1 and Huh-7 cells were treated with 1 μM RSL3 for 4 h, 15 μM erastin for 8 h, 10 μM IKE for 8 h, 15 μM FINO2 for 8 h, 10 μM FIN56 for 8 h, 100 μM tBuOOH for 8 h, 1 μM staurosporine (STS) for 6 h, 2 μM camptothecin (CPT) for 24 h, 1 μM RSL3+5 μM Fer-1 for 4 h and 10 μM IKE+5 μM Fer-1 for 8 h on poly-lysine-coated cover slips (Sigma Aldrich P4832) in 24-well plate. Media were taken out and the cells were gently washed with PBS^++ (PBS with 1 mM CaCl2) and 0.5 mM MgCl2) twice. The cells were fixed and permeabilized by adding 200 μL/well of 4% paraformaldehyde (PFA) in PBS with 0.1% Triton X-100 (PBT), and incubated at room temperature for 18 min. The cells were then washed with PBT three times. Then the cells were blocked with 5% goat serum (ThermoFisher 50197Z) in PBT for 1 h at room temperature. […] When applicable, line-scan analysis was performed on representative confocal microscopy images using Zeiss LSM software to qualitatively visualize fluorescence overlap.
The quantification of the intensity of antibodies was analyzed using CellProfiler 3.1.8 (Carpenter et al., 2006) (CellProfiler Image Analysis Software, RRID:SCR_007358). […] Then mean intensities and size areas of nuclei, cytoplasm and plasma membranes were then measured and reported. […]

B1: 3F3-FMA: murine monoclonal IgG1 raised against ferroptotic membrane fractions; antigen is human transferrin receptor protein 1 (TfR1) (antibody, V domains shown)
VH: EVLLQQSGTELVRPGALVKLSCKASGFNIQDLYIHWVKQRPEQGLEWIGWIDPETDNTIYDPKFQGKASITADTSSNTAYLQLSSLTSEDTAMYYCSTGLLQWYFDVWGAGTAVTVSS
VL: DIVMTQSPSSLAMSIGQKVTMRCKSSQSLLNSYNQKNCLAWYQQKPGQSPKLLLYFVSTRESGVPDRFIGSGSGTDFTLTISSVQAEDLADYFCQQHYSTPLTFGAGTKLELK
- staining upon ferroptosis induction: staining concentrated at the cell boundaries and became brighter
